Assay results: US12329801B2, “Regenerative polypeptides and uses thereof” (JUVENA THERAPEUTICS, INC., priority 2021, dated 2025)

Test system: DM1 human myoblast
Assay: Myogenic gene expression fold change in DM1 human myoblast
Assay type: cell-based
Settings: 48 h; BMP7 50 ng/mL, Butyrate 100 nM, IGF2 200 ng/mL
Experimental: Myoblasts were cultured 48 h in the presence of factors (BMP7 50 ng/mL, Butyrate 100 nM, IGF2 200 ng/mL).
Myoblasts were cultured 96 h in the presence of factors (IGF2 200 ng/ml). […] Myoblasts were cultured 48 h in the presence of factors (IGF2 200 ng/mL).
IGF2 was tested individually for its ability to promote proliferation and/or fusion of human muscle progenitor cells from an individual with myotonic dystrophy type 1 (hMD)—a muscular dystrophy caused by mutations in the DMPK1 gene. The effect of IGF2 on myogenic activity was assayed in biological triplicate across a range of concentrations centered around expected physiological levels by adding each factor to hMD myoblasts for 72 hours with daily media changes (DMEM +2% horse serum) and a second pulse of factors at the first media change. After 72 or 96 hours, cells were pulsed for 2-5 hours with EdU (30 uM), ethanol fixed, stained with Hoescht 3342, immunostained for proliferation—as measured by the percent of cells staining positive for EdU (% EdU)-, and immunostained for differentiation—as measured by the increase in cellular area staining positive for embryonic myosin heavy chain (% eMyHC) relative to the negative controls, which received media and vehicle only. Wells were imaged on a Keyence BZ-100 at 4×, the images quantified in Cell Profiler, and the statistics were computed in R. Additionally, RNA was extracted from myoblast and select transcript abundances quantified by qPCR.

B1: BMP7: factor BMP7, 50 ng/mL, tested on DM1 human myoblast (protein, UniProt P18075 293-431, looked up)
Bone morphogenetic protein 7: STGSKQRSQNRSKTPKNQEALRMANVAENSSSDQRQACKKHELYVSFRDLGWQDWIIAPEGYAAYYCEGECAFPLNSYMNATNHAIVQTLVHFINPETVPKPCCAPTQLNAISVLYFDDSSNVILKKYRNMVVRACGCH
MYF5 expression fold change compared to FM (vehicle): 0.709
MYOD1 expression fold change compared to FM (vehicle): 0.709
MYOG expression fold change compared to FM (vehicle): 0.361
